Test results as given in paper PMC8625570 (2021).

Columns and labels:
Assay in all cases: mGppNHp-bound
[1] = target: T1, RAC3 (aa 1-192) (human, UniProt P60763 1-192)
[2] = target: T2, RAC1 (aa 1-179) (human, UniProt P63000 1-179)
[3] = target: T3, CDC42 (aa 1-178) (human, UniProt P60953 1-178)
[4] = target: T4, RHOG (aa 1-178) (human, UniProt P84095 1-178)
[5] = target: T1, RAC3 (aa 1-192); remark: listed apart in the source
[6] = target: RAC2 (aa 1-192) (human, UniProt P15153 1-192)
[7] = target: T2, RAC1 (aa 1-179); remark: listed apart in the source
[8] = target: T3, CDC42 (aa 1-178); remark: listed apart in the source
[9] = target: T4, RHOG (aa 1-178); remark: listed apart in the source
[10] = target: T5, RAC1 M45E/N52E (human, UniProt P63000 1-179, M45E | N52E)
[11] = target: T6, RAC1 Q74D (human, UniProt P63000 1-179, Q74D)
[12] = target: T7, RAC1 V85D/S88D (so in the source); residue 88 of RAC1 is Ala by the legend of Figure 2) (human, UniProt P63000 1-179, V85D | S88D (Ala-88 in RAC1))
[13] = target: T8, RAC1 T25K/N26D (human, UniProt P63000 1-179, T25K | N26D)
[14] = target: T9, CDC42 V85D/S88D (human, UniProt P60953 1-178, V85D | S88D)
T9 sequence (P60953 1-178 V85D/S88D): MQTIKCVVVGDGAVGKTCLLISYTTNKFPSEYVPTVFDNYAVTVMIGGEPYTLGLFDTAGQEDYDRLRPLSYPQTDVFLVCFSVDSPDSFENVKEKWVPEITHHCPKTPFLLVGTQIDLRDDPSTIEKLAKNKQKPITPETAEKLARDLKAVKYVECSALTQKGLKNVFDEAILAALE

[15] = target: T10, CDC42 T25K/N26D (human, UniProt P60953 1-178, T25K | N26D)
T10 sequence (P60953 1-178 T25K/N26D): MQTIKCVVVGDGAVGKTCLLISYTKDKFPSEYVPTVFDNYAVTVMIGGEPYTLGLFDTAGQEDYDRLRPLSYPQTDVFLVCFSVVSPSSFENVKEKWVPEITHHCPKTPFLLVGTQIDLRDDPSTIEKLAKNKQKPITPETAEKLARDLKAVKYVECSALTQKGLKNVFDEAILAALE

[16] = target: T11, RHOA-to-RAC1 variant (RHOA K27T, D28N, E47M, E54N, D76Q) (human, UniProt P61586 1-181, K27T | D28N | E47M | E54N | D76Q)
T11 sequence (P61586 1-181 K27T/D28N/E47M/E54N/D76Q): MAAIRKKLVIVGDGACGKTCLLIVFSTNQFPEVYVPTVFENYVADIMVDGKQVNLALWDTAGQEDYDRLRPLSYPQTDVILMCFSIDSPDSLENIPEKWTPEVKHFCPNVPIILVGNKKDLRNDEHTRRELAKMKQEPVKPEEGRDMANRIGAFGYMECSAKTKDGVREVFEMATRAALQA

[17] = target: T12, CDC42 M45E/N52E (so in the source); residue 52 of CDC42 is given as T52 in the discussion) (human, UniProt P60953 1-178, M45E | N52E (T52 in CDC42))
T12 sequence (P60953 other isoform, or with tags, fused parts or gaps M45E | N52E (T52 in CDC42) | M45E N52E): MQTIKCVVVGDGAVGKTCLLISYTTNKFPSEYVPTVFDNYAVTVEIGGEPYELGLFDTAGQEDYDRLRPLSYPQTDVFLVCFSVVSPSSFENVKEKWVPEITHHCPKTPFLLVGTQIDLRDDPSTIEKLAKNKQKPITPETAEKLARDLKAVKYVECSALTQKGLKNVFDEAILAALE

[18] = target: T13, CDC42 Q74D (human, UniProt P60953 1-178, Q74D)
T13 sequence (P60953 1-178 Q74D): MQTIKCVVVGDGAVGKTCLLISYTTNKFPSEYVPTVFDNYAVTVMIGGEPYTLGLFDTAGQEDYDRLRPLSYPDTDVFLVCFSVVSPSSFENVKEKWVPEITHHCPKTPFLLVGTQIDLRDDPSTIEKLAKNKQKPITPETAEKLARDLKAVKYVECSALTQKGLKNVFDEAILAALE

[19] = target: T5, RAC1 M45E/N52E; remark: listed apart in the source
[20] = target: T6, RAC1 Q74D; remark: listed apart in the source
[21] = target: T7, RAC1 V85D/S88D (so in the source); residue 88 …; remark: listed apart in the source
[22] = target: T8, RAC1 T25K/N26D; remark: listed apart in the source
[23] = target: T9, CDC42 V85D/S88D; remark: listed apart in the source
[24] = target: T10, CDC42 T25K/N26D; remark: listed apart in the source
[25] = target: T11, RHOA-to-RAC1 variant (RHOA K27T, D28N, …); remark: listed apart in the source
[26] = target: T12, CDC42 M45E/N52E (so in the source); residue 52 …; remark: listed apart in the source
[27] = target: T13, CDC42 Q74D; remark: listed apart in the source

T4 sequence (P84095 1-178): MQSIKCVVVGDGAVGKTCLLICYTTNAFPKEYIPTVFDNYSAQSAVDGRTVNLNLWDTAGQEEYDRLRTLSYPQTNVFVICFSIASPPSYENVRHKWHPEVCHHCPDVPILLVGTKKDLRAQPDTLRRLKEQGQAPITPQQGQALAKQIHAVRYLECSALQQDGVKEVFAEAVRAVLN
T3 sequence (P60953 1-178): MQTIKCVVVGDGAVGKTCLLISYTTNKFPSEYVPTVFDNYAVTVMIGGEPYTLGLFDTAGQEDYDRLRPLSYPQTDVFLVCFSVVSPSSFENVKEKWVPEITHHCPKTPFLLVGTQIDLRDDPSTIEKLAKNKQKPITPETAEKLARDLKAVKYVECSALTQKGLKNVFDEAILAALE

B1: IQGAP1^C794 (C-terminal half of human IQGAP1 with the GRD, RGCT and CT domains) (domain or fragment)
chain: DPPMVVVRKFVHLLDQSDQDFQEELDLMKMREEVITLIRSNQQLENDLNLMDIKIGLLVKNKITLQDVVSHSKKLTKKNKEQLSDMMMINKQKGGLKALSKEKREKLEAYQHLFYLLQTNPTYLAKLIFQMPQNKSTKFMDSVIFTLYNYASNQREEYLLLRLFKTALQEEIKSKVDQIQEIVTGNPTVIKMVVSFNRGARGQNALRQILAPVVKEIMDDKSLNIKTDPVDIYKSWVNQMESQTGEASKLPYDVTPEQALAHEEVKTRLDSSIRNMRAVTDKFLSAIVSSVDKIPYGMRFIAKVLKDSLHEKFPDAGEDELLKIIGNLLYYRYMNPAIVAPDAFDIIDLSAGGQLTTDQRRNLGSIAKMLQHAASNKMFLGDNAHLSIINEYLSQSYQKFRRFFQTACDVPELQDKFNVDEYSDLVTLTKPVIYISIGEIINTHTLLLDHQDAIAPEHNDPIHELLDDLGEVPTIESLIGESSGNLNDPNKEALAKTEVSLTLTNKFDVPGDENAEMDARTILLNTKRLIVDVIRFQPGETLTEILETPATSEQEAEHQRAMQRRAIRDAKTPDKMKKSKSVKEDSNLTLQEKKEKIQTGLKKLTELGTVDPKNKYQELINDIARDIRNQRRYRQRRKAELVKLQQTYAALNSKATFYGEQVDYYKSYIKTCLDNLASKGKVSKKPREMKGKKSKKISLKYTAARLHEKGVLLEIEDLQVNQFKNVIFEISPTEEVGDFEVKAKFMGVQMETFMLHYQDLLQLQYEGVAVMKLFDRAKVNVNLLIFLLNKKFYGK
Which Kd [1] does the source give for B1 here?
Its Kd is 450 nM.

What about the Kd [2] of the same binder?
The Kd was 930 nM.

And the Kd [3]?
The Kd was 290 nM.

And the Kd [4]?
Its Kd is 490 nM.

And the koff [5]?
The koff was 0.69 s⁻¹.

And the koff [6]?
Its koff is 0.08 s⁻¹.

What about the koff [7] of the same binder?
Its koff is 0.65 s⁻¹.

What about the koff [8] of the same binder?
Its koff is 0.39 s⁻¹.

And the koff [9]?
Its koff is 0.56 s⁻¹.

And the koff [10]?
Its koff is 1.4 s⁻¹.

And the koff [11]?
The koff was 0.74 s⁻¹.

What about the koff [12] of the same binder?
Its koff is 2.84 s⁻¹.

What about the koff [13] of the same binder?
The koff was 2.01 s⁻¹.

What about the koff [14] of the same binder?
The koff was 0.88 s⁻¹.

And the koff [15]?
Its koff is 0.48 s⁻¹.

What about the koff [16] of the same binder?
The koff was 2.1 s⁻¹.

And the koff [17]?
Its koff is 0.95 s⁻¹.

And the koff [18]?
The koff was 1.19 s⁻¹.

What about the Kd [19] of the same binder?
The Kd was 8200 nM.

And the Kd [20]?
Its Kd is 6100 nM.

What about the Kd [21] of the same binder?
The Kd was 10500 nM.

What about the Kd [22] of the same binder?
Its Kd is 15300 nM.

What about the Kd [23] of the same binder?
The Kd was 1200 nM.

And the Kd [24]?
Its Kd is 920 nM.

And the Kd [25]?
The Kd was 1750 nM.

What about the Kd [26] of the same binder?
Its Kd is 1230 nM.

And the Kd [27]?
Its Kd is 1320 nM.
